This passage reports Ki results from patent publication US20180251489A1.

mucosa-associated lymphoid tissue lymphoma translocation protein 1, sequence (Q9UDY8 340-789): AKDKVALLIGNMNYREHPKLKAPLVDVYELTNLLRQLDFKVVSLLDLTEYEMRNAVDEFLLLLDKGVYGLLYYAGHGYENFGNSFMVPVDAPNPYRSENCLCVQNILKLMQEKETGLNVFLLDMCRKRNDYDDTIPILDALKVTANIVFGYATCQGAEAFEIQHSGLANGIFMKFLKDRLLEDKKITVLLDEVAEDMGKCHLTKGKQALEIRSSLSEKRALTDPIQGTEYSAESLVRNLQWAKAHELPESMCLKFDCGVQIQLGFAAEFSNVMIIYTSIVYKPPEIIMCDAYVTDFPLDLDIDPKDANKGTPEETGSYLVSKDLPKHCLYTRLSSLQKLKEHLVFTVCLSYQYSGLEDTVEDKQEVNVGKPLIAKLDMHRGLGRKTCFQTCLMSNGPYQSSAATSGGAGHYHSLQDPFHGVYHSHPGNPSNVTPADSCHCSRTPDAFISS

This test addresses mucosa-associated lymphoid tissue lymphoma translocation protein 1 (UniProt Q9UDY8). Description: enzyme inhibition assay, 100 nM MALT1.
For “Benzyl ((S)-1-((S)-2-(((S)-1-fluoro-6-guanidino-2-oxohexan-3-yl)carbamoyl)pyrrolidin-1-yl)-4-methyl-1-oxopentan-2-yl)carbamate (peptide)”, the inhibition constant (Ki) worked out at 93 nM. To “(S)-N-((S)-1-Fluoro-6-guanidino-2-oxohexan-3-yl)-1-((4-fluorobenzoyl)-L-valyl)pyrrolidine-2-carboxamide (peptide)” belongs 13 nM. To “4-Bromo-N-((S)-1-cyclohexyl-2-(((S)-1-(((S)-1-fluoro-6-guanidino-2-oxohexan-3-yl)amino)-3-hydroxy-1-oxopropan-2-yl)amino)-2-oxoethyl)benzamide (peptide)” belongs 46 nM; to “(S)-N-((S)-1-fluoro-6-guanidino-2-oxohexan-3-yl)-1-((4-(trifluoromethyl)benzoyl)-L-valyl)pyrrolidine-2-carboxamide (peptide)”, 132 nM. Consider “Benzyl ((S)-1-((S)-2-(((S)-1-fluoro-6-guanidino-2-oxohexan-3-yl)carbamoyl)pyrrolidin-1-yl)-1-oxo-3-phenylpropan-2-yl)carbamate (peptide)”, for which the Ki was 76 nM. To “N-((S)-1-((S)-2-(((S)-1-Fluoro-6-guanidino-2-oxohexan-3-yl)carbamoyl)pyrrolidin-1-yl)-3-methyl-1-oxobutan-2-yl)-2-morpholinothiazole-4-carboxamide (peptide)” belongs 111 nM; to “(S)-N-((S)-1-Fluoro-6-guanidino-2-oxohexan-3-yl)-1-((2-methoxybenzoyl)-L-valyl)pyrrolidine-2-carboxamide (peptide)”, 109 nM. Take “(S)-1-((1-naphthoyl)-L-valyl)-N-((S)-1-fluoro-6-guanidino-2-oxohexan-3-yl)pyrrolidine-2-carboxamide (peptide)”: the Ki came out at 102 nM. To “(S)-1-((4-bromobenzoyl)-L-valyl)-N-((S)-1-fluoro-6-guanidino-2-oxohexan-3-yl)piperidine-2-carboxamide (peptide)” belongs 79 nM; to “(S)-1-(((4-Bromophenyl)sulfonyl)-L-valyl)-N-((S)-1-fluoro-6-guanidino-2-oxohexan-3-yl)pyrrolidine-2-carboxamide (peptide)”, 66 nM. To “(S)-1-((4-chloro-3-cyanobenzoyl)-L-valyl)-N-((S)-1-fluoro-6-guanidino-2-oxohexan-3-yl)pyrrolidine-2-carboxamide (peptide)” belongs 24 nM. To “N-((S)-1-((S)-2-(((S)-1-fluoro-6-guanidino-2-oxohexan-3-yl)carbamoyl)pyrrolidin-1-yl)-3-methyl-1-oxobutan-2-yl)quinoline-2-carboxamide (peptide)” belongs 55 nM. As for “(S)-1-((4-Bromo-2-fluorobenzoyl)-L-valyl)-N-((S)-1-fluoro-6-guanidino-2-oxohexan-3-yl)pyrrolidine-2-carboxamide (peptide)”, the inhibition constant Ki is 71 nM. “(S)-N-((R)-1-Fluoro-6-guanidino-2-oxohexan-3-yl)-1-((4-fluorobenzoyl)-L-valyl)pyrrolidine-2-carboxamide (peptide)” had an inhibition constant (Ki) of 346 nM. The substance “(S)-N-((S)-1-Fluoro-6-guanidino-2-oxohexan-3-yl)-1-((4-methoxybenzoyl)-L-valyl)pyrrolidine-2-carboxamide (peptide)” displayed a Ki of 50 nM. In turn, “(2S,4R)-1-((4-Bromobenzoyl)-L-valyl)-4-cyano-N-((S)-1-fluoro-6-guanidino-2-oxohexan-3-yl)pyrrolidine-2-carboxamide (peptide)” gave a Ki of 28 nM. To “(S)-1-((S)-2-(4-Bromobenzamido)-3-(4-(trifluoromethyl)phenyl)propanoyl)-N-((S)-1-fluoro-6-guanidino-2-oxohexan-3-yl)pyrrolidine-2-carboxamide (peptide)” belongs 448 nM; to “Benzyl ((S)-1-((S)-2-(((S)-1-fluoro-6-guanidino-2-oxohexan-3-yl)carbamoyl)pyrrolidin-1-yl)-3,3-dimethyl-1-oxobutan-2-yl)carbamate (peptide)”, 43 nM.
